One may read the Kd as the constant that tells how readily two partners part at equilibrium.

The values that follow come from patent publication US20220177599A1.

Experiment [1] addresses Recombinant human EpCAM monomer protein (R&D systems, cat. no. 9277-EP), conjugated with Alexa Fluor 647 (human) (UniProt P16422). The experiment in a line: saturation binding by flow cytometry: CAR-expressing Jurkat T cells stained with serially diluted Alexa Fluor 647-conjugated EpCAM, one-site nonlinear regression of MFI. In general terms: Flow cytometry measures light scatter and fluorescence of single cells or particles in a stream.

Experiment [2] shares this target. Put plainly: flow cytometry saturation binding: CAR-expressing Jurkat T cells stained with serially diluted AF647-conjugated EpCAM, MFI fitted with the one-site nonlinear regression model.
Experiment [3] concerns the target EpCAM on tumor cells (SK-BR3, Capan-2, HT-29, SNU-638, MKN-45, MDA-MB-231, SW-1990) (human) (UniProt P16422). The experiment in a line: cell-based or functional assay.
Experiment [4] concerns the target Recombinant human EpCAM monomer protein (R&D systems, cat. no. 9277-EP), conjugated with Alexa Fluor 647 (human) (UniProt P16422). The experiment in a line: saturation binding by flow cytometry on CAR-expressing Jurkat T cells with Alexa Fluor 647-conjugated EpCAM; reference is C215 CAR.
Experiment [5] addresses Intercellular adhesion molecule-1 (ICAM-1) on tumor cells (SNU-638, MKN-45) (human) (UniProt P05362). Put plainly: cell-based or functional assay.
UniProt P05362, sequence (P05362 28-532): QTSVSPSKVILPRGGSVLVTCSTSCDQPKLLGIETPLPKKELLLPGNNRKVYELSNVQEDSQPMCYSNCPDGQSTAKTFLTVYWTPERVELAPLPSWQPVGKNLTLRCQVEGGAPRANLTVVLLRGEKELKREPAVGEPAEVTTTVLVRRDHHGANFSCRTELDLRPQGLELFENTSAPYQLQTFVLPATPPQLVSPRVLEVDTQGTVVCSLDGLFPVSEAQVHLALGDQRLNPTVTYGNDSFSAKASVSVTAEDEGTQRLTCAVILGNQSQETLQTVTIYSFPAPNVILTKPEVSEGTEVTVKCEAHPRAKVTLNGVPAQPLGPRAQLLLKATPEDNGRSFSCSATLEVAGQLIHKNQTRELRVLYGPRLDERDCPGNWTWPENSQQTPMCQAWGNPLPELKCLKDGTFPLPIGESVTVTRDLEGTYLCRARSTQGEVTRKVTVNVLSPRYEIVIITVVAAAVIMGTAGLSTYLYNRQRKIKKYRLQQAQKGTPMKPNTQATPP

Regarding “C215 CAR (anti-EpCAM chimeric antigen receptor with the scFv of mouse monoclonal antibody C215, CD28-CD3ζ 2nd generation backbone)”, the Kd turned out to be 4 nM in experiment [1] and 3.95 nM in experiment [2].

Molecule “UBS54 CAR (anti-EpCAM chimeric antigen receptor with the scFv of monoclonal antibody UBS-54, CD28-CD3ζ 2nd generation backbone)” yielded a lysis of SNU-638 and MKN-45 wild-type cells at 48 hours (bioluminescence-based cytotoxicity assay, E:T 1:1) in experiment [3] of 90%. In addition, the fold difference of KD against C215 CAR in experiment [4] is > 60 fold. The Kd in experiment [1] was determined as 250 nM; in experiment [2], 253 nM.

B1: F292A CAR (ICAM-1 CAR with the LFA-1 αL I domain carrying the F292A mutation, 4-1BB-CD3ζ) (receptor, part only; not given: hinge, transmembrane, signalling domains, tag, not shown: large carriers)
chain, part: VDLVFLFDGSMSLQPDEFQKILDFMKDVMKKLSNTSYQFAAVQFSTSYKTEFDFSDYVKWKDPDALLKHVKHMLLLTNTFGAINYVATEVFREELGARPDATKVLIIITDGEATDSGNIDAAKDIIRYIIGIGKHFQTKESQETLHKFASKPASEFVKILDTAEKLKDLFTELQKKIYVIE
Regarding B1, in experiment [5], the killing of MKN-45 cells at 48 hours (bioluminescence-based cytotoxicity assay, E:T 1:1) was 0 and the specific lysis of SNU-638 cells at 48 hours (bioluminescence-based cytotoxicity assay, E:T 1:1) was found to be 40%.
